Reference: publication PMC10397247

Experiments:
Test in all cases: two-hybrid library CCmax;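 note: natural log of median RNA to DNA barcode read ratio; higher means stronger binding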
[1] = target: T1, 4H2907-AA; conditions: mean of both orientations
T1 chain: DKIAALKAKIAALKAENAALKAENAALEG

[2] = target: T2, 4H2198-AA; conditions: mean of both orientations
T2 chain: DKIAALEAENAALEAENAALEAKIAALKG

[3] = target: T3, 4H1310-AA; conditions: mean of both orientations
T3 chain: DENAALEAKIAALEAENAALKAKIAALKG

[4] = target: T4, 4H697-AA; conditions: mean of both orientations
T4 chain: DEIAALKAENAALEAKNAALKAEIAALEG

[5] = target: T5, 4H123-AA
T5 chain: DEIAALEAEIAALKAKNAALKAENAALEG

[6] = target: T6, 4H1874-AA; conditions: mean of both orientations
T6 chain: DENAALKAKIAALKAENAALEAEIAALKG

[7] = target: T7, 4H2553-AA; conditions: mean of both orientations
T7 chain: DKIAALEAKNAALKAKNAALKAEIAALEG

[8] = target: T8, 4H2648-AA; conditions: mean of both orientations
T8 chain: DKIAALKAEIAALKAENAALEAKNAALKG

[9] = target: T9, 4H982-AA; conditions: mean of both orientations
T9 chain: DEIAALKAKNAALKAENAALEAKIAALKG

[10] = target: T10, 4H384-AA; conditions: mean of both orientations
T10 chain: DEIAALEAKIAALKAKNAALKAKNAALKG

[11] = target: T11, 4H3056-AA; conditions: mean of both orientations
T11 chain: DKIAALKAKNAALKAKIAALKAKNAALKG

[12] = target: T12, 4H3606-AA; conditions: mean of both orientations
T12 chain: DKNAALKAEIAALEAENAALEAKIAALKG

[13] = target: T13, 4H1351-AA; conditions: mean of both orientations
T13 chain: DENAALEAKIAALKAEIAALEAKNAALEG

[14] = target: T14, 4H1845-AA; conditions: mean of both orientations
T14 chain: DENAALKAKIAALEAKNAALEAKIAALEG

[15] = target: T15, 4H3378-AA
T15 chain: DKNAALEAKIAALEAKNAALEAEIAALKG

[16] = target: T16, 4H3718-AA; conditions: mean of both orientations
T16 chain: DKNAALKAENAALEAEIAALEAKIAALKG

[17] = target: T17, 4H3413-AA; conditions: mean of both orientations
T17 chain: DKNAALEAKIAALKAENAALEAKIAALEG

[18] = target: T18, 4H2611-AA; conditions: mean of both orientations
T18 chain: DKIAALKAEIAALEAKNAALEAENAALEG

[19] = target: T19, 4H340-AA; conditions: mean of both orientations
T19 chain: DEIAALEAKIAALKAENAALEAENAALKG

[20] = target: T20, 4H32-AA; conditions: mean of both orientations
T20 chain: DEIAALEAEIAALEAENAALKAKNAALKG

[21] = target: T21, 4H2620-AA; conditions: mean of both orientations
T21 chain: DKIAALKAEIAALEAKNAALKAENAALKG

[22] = target: T22, 4H3588-AA; conditions: mean of both orientations
T22 chain: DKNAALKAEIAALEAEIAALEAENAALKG

[23] = target: T23, 4H3133-AA; conditions: mean of both orientations
T23 chain: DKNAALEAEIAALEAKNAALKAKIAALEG

[24] = target: T24, 4H3865-AA; conditions: mean of both orientations
T24 chain: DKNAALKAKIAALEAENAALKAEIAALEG

[25] = target: T25, 4H1629-AA; conditions: mean of both orientations
T25 chain: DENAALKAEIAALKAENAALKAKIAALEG

[26] = target: T26, 4H1388-AA; conditions: mean of both orientations
T26 chain: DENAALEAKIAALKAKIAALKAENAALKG

[27] = target: T27, 4H1594-AA; conditions: mean of both orientations
T27 chain: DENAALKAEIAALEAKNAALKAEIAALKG

[28] = target: T28, 4H3697-AA; conditions: mean of both orientations
T28 chain: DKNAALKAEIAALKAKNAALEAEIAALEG

[29] = target: T29, 4H3631-AA; conditions: mean of both orientations
T29 chain: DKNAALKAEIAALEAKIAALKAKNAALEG

[30] = target: T30, 4H3162-AA; conditions: mean of both orientations
T30 chain: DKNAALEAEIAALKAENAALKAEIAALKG

[31] = target: T31, 4H1513-AA; conditions: mean of both orientations
T31 chain: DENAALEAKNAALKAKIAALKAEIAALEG

[32] = target: T32, 4H1401-AA; conditions: mean of both orientations
T32 chain: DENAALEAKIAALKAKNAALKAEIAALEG

[33] = target: T33, 4H341-AA; conditions: mean of both orientations
T33 chain: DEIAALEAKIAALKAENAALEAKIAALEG

[34] = target: T34, 4H3619-AA; conditions: mean of both orientations
T34 chain: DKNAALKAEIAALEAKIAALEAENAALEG

[35] = target: T35, 4H2961-AA; conditions: mean of both orientations
T35 chain: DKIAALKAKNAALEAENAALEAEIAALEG

[36] = target: T36, 4H249-AA; conditions: mean of both orientations
T36 chain: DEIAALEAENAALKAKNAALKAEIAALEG

[37] = target: T37, 4H3049-AA; conditions: mean of both orientations
T37 chain: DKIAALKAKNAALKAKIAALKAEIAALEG

[38] = target: T38, 4H3629-AA; conditions: mean of both orientations
T38 chain: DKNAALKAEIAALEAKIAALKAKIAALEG

[39] = target: T39, 4H432-AA; conditions: mean of both orientations
T39 chain: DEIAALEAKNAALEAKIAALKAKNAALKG

[40] = target: T40, 4H1593-AA; conditions: mean of both orientations
T40 chain: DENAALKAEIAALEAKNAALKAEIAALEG

[41] = target: T41, 4H3915-AA; conditions: mean of both orientations
T41 chain: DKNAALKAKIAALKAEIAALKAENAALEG

[42] = target: T42, 4H446-AA; conditions: mean of both orientations
T42 chain: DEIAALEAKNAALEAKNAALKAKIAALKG

[43] = target: T43, 4H2580-AA; conditions: mean of both orientations
T43 chain: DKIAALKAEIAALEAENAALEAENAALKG

[44] = target: T44, 4H2604-AA; conditions: mean of both orientations
T44 chain: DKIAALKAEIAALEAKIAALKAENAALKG

[45] = target: T45, 4H235-AA; conditions: mean of both orientations
T45 chain: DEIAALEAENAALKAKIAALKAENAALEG

[46] = target: T46, 4H2947-AA
T46 chain: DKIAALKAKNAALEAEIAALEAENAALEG

[47] = target: T47, 4H3974-AA; conditions: mean of both orientations
T47 chain: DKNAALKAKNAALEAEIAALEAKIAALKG

[48] = target: T48, 4H133-AA
T48 chain: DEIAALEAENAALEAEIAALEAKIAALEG

[49] = target: T49, 4H63-AA; conditions: mean of both orientations
T49 chain: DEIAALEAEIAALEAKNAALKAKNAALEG

[50] = target: T50, 4H3449-AA; conditions: mean of both orientations
T50 chain: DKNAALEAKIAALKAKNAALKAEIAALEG

[51] = target: T51, 4H3094-AA; conditions: mean of both orientations
T51 chain: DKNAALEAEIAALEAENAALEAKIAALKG

[52] = target: T52, 4H2903-AA; conditions: mean of both orientations
T52 chain: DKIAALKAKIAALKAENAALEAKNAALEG

[53] = target: T53, 4H380-AA; conditions: mean of both orientations
T53 chain: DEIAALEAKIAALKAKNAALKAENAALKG

[54] = target: T54, 4H1384-AA; conditions: mean of both orientations
T54 chain: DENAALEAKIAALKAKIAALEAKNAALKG

[55] = target: T55, 4H324-AA; conditions: mean of both orientations
T55 chain: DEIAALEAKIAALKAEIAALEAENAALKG

[56] = target: T56, 4H1878-AA; conditions: mean of both orientations
T56 chain: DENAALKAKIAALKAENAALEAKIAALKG

[57] = target: T57, 4H2760-AA; conditions: mean of both orientations
T57 chain: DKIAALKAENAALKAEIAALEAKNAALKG

[58] = target: T58, 4H2774-AA; conditions: mean of both orientations
T58 chain: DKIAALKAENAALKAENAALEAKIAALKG

[59] = target: T59, 4H1349-AA; conditions: mean of both orientations
T59 chain: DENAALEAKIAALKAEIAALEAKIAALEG

[60] = target: T60, 4H2621-AA; conditions: mean of both orientations
T60 chain: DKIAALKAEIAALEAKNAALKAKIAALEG

[61] = target: T61, 4H1449-AA; conditions: mean of both orientations
T61 chain: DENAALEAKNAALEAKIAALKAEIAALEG

[62] = target: T62, 4H3777-AA; conditions: mean of both orientations
T62 chain: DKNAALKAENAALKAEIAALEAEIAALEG

DEIAALEAEIAALKAKNAALKAENAALEG [4H123-AA]
interaction score [1]: 0.0402
interaction score [2]: -0.461
interaction score [3]: -2
interaction score [4]: -0.781
interaction score [5]: -1.3
interaction score [6]: -0.134
interaction score [7]: -1.8
interaction score [8]: 2.1
interaction score [9]: -1.15
interaction score [10]: -0.635
interaction score [11]: -2.08
interaction score [12]: 1.04
interaction score [13]: -0.328
interaction score [14]: -1.73
interaction score [15]: -1.89
interaction score [16]: -0.602
interaction score [17]: -1.35
interaction score [18]: 0.00349
interaction score [19]: 1.64
interaction score [20]: 1.79
interaction score [21]: 0.675
interaction score [22]: -0.454
interaction score [23]: -2.05
interaction score [24]: -1.93
interaction score [25]: -1.79
interaction score [26]: -0.318
interaction score [27]: -1.9
interaction score [28]: -1.64
interaction score [29]: -0.979
interaction score [30]: -1.32
interaction score [31]: -1.7
interaction score [32]: -1.83

DEIAALEAENAALEAEIAALEAKIAALEG [4H133-AA]
interaction score [33]: -1.11
interaction score [34]: -0.325
interaction score [35]: -1.33
interaction score [36]: 0.33
interaction score [37]: 2.17
interaction score [38]: 1.24
interaction score [39]: -0.168
interaction score [40]: -0.948
interaction score [41]: 1.08
interaction score [42]: 0.854
interaction score [43]: -1.27
interaction score [44]: -0.647
interaction score [45]: 0.197
interaction score [46]: -0.964
interaction score [47]: 0.688
interaction score [48]: -0.665
interaction score [49]: -1.37
interaction score [50]: 0.625
interaction score [51]: -1.05
interaction score [52]: -1.62
interaction score [53]: -1.13
interaction score [54]: 0.598
interaction score [55]: -0.986
interaction score [56]: 1.23
interaction score [57]: 1.33
interaction score [58]: 0.342
interaction score [59]: 0.224
interaction score [60]: 0.704
interaction score [61]: 0.176
interaction score [62]: 0.631
